This data set addresses MBP-FZP (Oryza sativa, UniProt Q8H3Q1 1-318). Kind of data set: EMSA; 5 nmol protein, 2 nmol probe (so in the source); shift substantially weakened by excess unlabeled probe; EMSA: 10 uL, 2 uL 5x EMSA/Gel-shift binding buffer (Beyotime?), 5 nmol protein, 2 nmol biotin-labeled probe; salt, pH and temperature not given. As to conditions: protein: recombinant; tags: MBP (pMAL-c2x); label: biotin; blunt. For orientation: Mobility shift assays separate free from complexed probe on a gel.

Chain of MBP-FZP (Q8H3Q1 whole entry): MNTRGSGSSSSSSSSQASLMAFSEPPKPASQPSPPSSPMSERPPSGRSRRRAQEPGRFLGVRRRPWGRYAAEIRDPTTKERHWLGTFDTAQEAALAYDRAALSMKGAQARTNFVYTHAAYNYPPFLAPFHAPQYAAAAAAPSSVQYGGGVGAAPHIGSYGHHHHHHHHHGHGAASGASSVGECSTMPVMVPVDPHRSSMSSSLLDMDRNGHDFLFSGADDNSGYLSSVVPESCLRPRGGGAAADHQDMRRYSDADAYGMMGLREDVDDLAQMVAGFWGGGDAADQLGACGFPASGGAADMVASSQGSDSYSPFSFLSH

B1: EMSA-DST-probe (GCC-box, DST promoter) (dsDNA)
DNA 1: GCACAAGACCCGCAGGCCCAATGGCGAGCCGCCACGTGTACCCGCGCCTCCCCTCCCCGGCC
DNA 2: GGCCGGGGAGGGGAGGCGCGGGTACACGTGGCGGCTCGCCATTGGGCCTGCGGGTCTTGTGC
As to B1, the binding result is on record as “binds”.

Values taken from publication PMC10724965, “FRIZZLE PANICLE (FZP) regulates rice spikelets development through modulating cytokinin metabolism”.
